Laboratory results: patent US20200283478A1 (Genentech, published 2020)
Read-outs that look alike come from different tables or passages of the source. Bridge positions count the residues as written; N and C are the ends. Square brackets hold non-standard residues; d marks the D form. Ends that are not written are not given here. hArg = N=C(N)NCCCC[C@H](N)C(=O)O

Legend:
[1] = biological target: T1, PCSK9Δhelix (human PCSK9 lacking the P' helix, His-tagged) (human, UniProt Q8NBP7 31-152; Q8NBP7 168-692); experiment: SPR (Biacore), His-tagged PCSK9Δhelix captured on NTA chip
T1 construct: Construct M1-Q692 with an engineered TEV site (Y166 and R167 deleted, ENLYFQS inserted between R165 and A168); also called His-PCSK9Δhelix; C-terminal (His)8-tagged PCSK9Δhelix

[2] = biological target: T1, PCSK9Δhelix (human PCSK9 lacking the P' …); experiment: TR-FRET competition; His-PCSK9Δhelix with Ab20 as competitor ligand
[3] = biological target: T2, His-tagged, full-length human PCSK9 (proprotein convertase subtilisin/kexin type 9) (human, UniProt A8T644 31-152; Q8NBP7 153-692); experiment: TR-FRET competition; His-PCSK9 with LDLR-Fc as competitor ligand
T2 construct: also called His-PCSK9; C-terminal (His)8-tagged PCSK9

[4] = biological target: T2, His-tagged, full-length human PCSK9 …; experiment: TR-FRET competition; His-PCSK9 with EGF(A)-Fc as competitor ligand
[5] = biological target: T1, PCSK9Δhelix (human PCSK9 lacking the P' …); experiment: TR-FRET competition; His-PCSK9Δhelix with Ab20 as competitor ligand; remark: listed apart in the source
[6] = biological target: T3, PCSK9 (proprotein convertase subtilisin/kexin type 9), His-tagged, full-length (human, UniProt Q8NBP7 31-692); experiment: SPR, Method 1 (Biacore T100, His-tagged target captured on NTA chip)
T3 construct: Captured by the His tag (SPR Methods 1 and 2), amine-coupled (Method 3), or His-tagged in TR-FRET; also called His-PCSK9

[7] = biological target: T4, PCSK9Δhelix (human, UniProt Q8NBP7 31-152; Q8NBP7 168-692); experiment: as above
T4 construct: Made by TEV cleavage of human PCSK9 M1-Q692 with an engineered TEV site; The new N-terminus of the catalytic domain is S-A168; also called His-PCSK9Δhelix; PCSK9 lacking the P' helix

[8] = biological target: T5, PCSK9Δhelix (human, Chemically biotinylated in the phage ELISAs; the site is not given.); experiment: phage competition ELISA: synthetic peptide against its phage-displayed counterpart
T5 construct: construct M1-Q692 with engineered TEV site, cleaved by TEV; also called His-PCSK9Δhelix; open groove PCSK9Δhelix

[9] = biological target: T6, proprotein convertase subtilisin/kexin type 9 (PCSK9) (human, UniProt Q8NBP7 31-692); experiment: phage spot ELISA; first of two rows with this extension
T6 construct: His-tagged full-length PCSK9 in TR-FRET and SPR, biotinylated in phage ELISA; secreted protein is autoprocessed (prodomain plus catalytic/CRD chain starting at S153); also called rec.PCSK9; His-PCSK9

[10] = biological target: T5, PCSK9Δhelix; experiment: as above
[11] = biological target: T6, proprotein convertase subtilisin/kexin …; experiment: phage spot ELISA; second of two rows with this extension
[12] = biological target: T5, PCSK9Δhelix; experiment: as above
[13] = biological target: T3, PCSK9 (proprotein convertase …); experiment: TR-FRET competition; competitor EGF(A)-Fc binding to His-PCSK9
[14] = biological target: T4, PCSK9Δhelix; experiment: TR-FRET competition; competitor Ab20 binding to His-PCSK9Δhelix
[15] = biological target: T3, PCSK9 (proprotein convertase …); experiment: TR-FRET competition; competitor EGF(A)-Fc binding to His-PCSK9; remark: listed apart in the source
[16] = biological target: T4, PCSK9Δhelix; experiment: TR-FRET competition; competitor Ab20 binding to His-PCSK9Δhelix; remark: listed apart in the source
[17] = biological target: T5, PCSK9Δhelix; experiment: phage competition ELISA against phage-displayed Pep2-8 (Φpep2-8)
[18] = biological target: T5, PCSK9Δhelix; experiment: phage competition ELISA against phage-displayed K9gvpep4 (ΦK9gvpep4)

T3 sequence (Q8NBP7 31-692 limits assumed): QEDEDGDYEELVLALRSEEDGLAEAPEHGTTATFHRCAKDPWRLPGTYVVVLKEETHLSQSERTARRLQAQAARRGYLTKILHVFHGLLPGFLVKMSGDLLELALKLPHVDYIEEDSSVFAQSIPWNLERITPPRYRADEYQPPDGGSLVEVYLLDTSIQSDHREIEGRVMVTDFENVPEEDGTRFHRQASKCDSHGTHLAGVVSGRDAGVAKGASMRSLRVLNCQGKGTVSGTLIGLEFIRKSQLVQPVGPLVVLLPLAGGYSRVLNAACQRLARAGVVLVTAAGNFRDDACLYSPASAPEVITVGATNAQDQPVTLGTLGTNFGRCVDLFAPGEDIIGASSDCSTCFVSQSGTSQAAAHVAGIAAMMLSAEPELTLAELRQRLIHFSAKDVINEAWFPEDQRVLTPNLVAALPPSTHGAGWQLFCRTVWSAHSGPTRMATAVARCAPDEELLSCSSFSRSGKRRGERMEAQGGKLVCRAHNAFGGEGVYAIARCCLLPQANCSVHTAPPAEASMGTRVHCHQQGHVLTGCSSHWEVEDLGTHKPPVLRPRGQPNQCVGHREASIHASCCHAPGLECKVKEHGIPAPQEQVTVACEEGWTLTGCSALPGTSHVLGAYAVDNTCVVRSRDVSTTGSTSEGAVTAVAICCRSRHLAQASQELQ
T6 sequence (Q8NBP7 other isoform, or with tags, fused parts or gaps limits assumed): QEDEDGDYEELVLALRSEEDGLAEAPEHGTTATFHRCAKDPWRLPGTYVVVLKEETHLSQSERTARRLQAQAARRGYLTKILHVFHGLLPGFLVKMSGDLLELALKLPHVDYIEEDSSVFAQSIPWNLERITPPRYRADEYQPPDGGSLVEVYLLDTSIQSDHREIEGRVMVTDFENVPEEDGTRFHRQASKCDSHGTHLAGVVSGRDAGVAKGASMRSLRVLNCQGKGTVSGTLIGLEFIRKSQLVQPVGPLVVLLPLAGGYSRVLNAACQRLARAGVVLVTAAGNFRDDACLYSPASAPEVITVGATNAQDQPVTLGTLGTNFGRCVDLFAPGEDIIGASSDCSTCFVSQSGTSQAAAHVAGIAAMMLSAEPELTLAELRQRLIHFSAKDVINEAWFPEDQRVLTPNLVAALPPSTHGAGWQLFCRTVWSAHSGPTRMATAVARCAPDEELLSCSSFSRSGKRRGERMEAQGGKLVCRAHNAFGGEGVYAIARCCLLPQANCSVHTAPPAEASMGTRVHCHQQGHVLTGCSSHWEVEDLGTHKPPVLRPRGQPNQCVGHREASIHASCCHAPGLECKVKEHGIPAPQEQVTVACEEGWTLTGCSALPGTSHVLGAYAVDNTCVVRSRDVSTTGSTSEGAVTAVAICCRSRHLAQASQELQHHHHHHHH
T1 sequence (Q8NBP7 31-152, stated change not applied, chain 1 of 2): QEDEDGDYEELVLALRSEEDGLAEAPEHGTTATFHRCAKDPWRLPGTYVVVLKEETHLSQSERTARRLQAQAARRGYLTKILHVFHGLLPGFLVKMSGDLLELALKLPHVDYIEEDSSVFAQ
T1 sequence (Q8NBP7 other isoform, or with tags, fused parts or gaps mutant, chain 2 of 2): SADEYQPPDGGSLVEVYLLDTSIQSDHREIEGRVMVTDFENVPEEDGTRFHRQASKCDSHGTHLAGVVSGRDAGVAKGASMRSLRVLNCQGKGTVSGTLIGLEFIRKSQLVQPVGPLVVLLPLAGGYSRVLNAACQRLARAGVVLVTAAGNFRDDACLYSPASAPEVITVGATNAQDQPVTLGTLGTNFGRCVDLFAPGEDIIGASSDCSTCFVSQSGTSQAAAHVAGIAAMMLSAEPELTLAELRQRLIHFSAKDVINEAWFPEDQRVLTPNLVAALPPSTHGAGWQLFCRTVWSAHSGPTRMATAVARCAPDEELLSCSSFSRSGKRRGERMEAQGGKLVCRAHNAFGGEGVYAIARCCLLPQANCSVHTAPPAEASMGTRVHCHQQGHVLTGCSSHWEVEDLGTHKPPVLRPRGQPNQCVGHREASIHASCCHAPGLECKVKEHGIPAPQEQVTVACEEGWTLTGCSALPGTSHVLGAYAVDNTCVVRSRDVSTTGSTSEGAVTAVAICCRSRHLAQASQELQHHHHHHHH
T4 sequence (Q8NBP7 31-152, stated change not applied, chain 1 of 2): as the sequence (Q8NBP7 31-152, stated change not applied, chain 1 of 2) above
T4 sequence (Q8NBP7 other isoform, or with tags, fused parts or gaps mutant, chain 2 of 2): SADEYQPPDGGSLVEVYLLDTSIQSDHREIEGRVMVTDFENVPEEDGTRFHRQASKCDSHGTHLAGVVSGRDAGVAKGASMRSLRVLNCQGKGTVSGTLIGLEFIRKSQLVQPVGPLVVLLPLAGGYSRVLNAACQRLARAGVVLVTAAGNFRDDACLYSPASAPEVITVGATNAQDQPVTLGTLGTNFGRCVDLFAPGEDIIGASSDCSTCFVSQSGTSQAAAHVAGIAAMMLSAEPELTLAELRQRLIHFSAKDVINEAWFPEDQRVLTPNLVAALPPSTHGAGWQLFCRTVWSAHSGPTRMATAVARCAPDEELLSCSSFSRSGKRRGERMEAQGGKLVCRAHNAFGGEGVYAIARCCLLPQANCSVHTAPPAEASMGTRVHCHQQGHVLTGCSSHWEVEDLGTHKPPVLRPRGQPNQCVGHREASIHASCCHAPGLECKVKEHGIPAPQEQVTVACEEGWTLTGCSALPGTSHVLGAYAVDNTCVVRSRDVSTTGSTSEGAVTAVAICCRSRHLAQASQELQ
T2 sequence (A8T644 31-152, chain 1 of 2): as the sequence (Q8NBP7 31-152, stated change not applied, chain 1 of 2) above
T2 sequence (A8T644 other isoform, or with tags, fused parts or gaps, chain 2 of 2): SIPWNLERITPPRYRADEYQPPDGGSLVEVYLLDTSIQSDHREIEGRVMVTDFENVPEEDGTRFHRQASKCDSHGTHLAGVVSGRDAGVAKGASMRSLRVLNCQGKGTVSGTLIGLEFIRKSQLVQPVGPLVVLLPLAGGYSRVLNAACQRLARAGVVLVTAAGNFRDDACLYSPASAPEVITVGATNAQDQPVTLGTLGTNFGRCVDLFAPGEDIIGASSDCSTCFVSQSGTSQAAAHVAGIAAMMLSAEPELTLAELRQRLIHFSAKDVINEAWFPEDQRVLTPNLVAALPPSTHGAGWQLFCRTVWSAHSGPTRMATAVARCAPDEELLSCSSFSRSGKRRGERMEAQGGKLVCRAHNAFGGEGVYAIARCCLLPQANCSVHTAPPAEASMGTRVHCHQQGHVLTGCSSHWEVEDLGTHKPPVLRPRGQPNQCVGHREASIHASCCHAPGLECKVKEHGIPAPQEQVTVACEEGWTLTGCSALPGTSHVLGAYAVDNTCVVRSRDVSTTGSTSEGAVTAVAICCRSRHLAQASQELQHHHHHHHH
T5 sequence (prodomain, as listed by the source mutant limits assumed, chain 1 of 2): as the sequence (Q8NBP7 31-152, stated change not applied, chain 1 of 2) above

B1: Compound 52: Ac-PWNLVRIGLLR-NH2 (peptide)
peptide: Ac-PWNLVRIGLLR-NH2
Kd [1]: 2100 nM | IC50 [2]: 15900 nM

B2: Compound 229: Ac-MESFPGWNLV(homoR)IGLLR-NH2 (peptide)
peptide: Ac-MESFPGWNLV[hArg]IGLLR-NH2
SMILES: CC[C@H](C)[C@H](NC(=O)[C@H](CCCCNC(=N)N)NC(=O)[C@@H](NC(=O)[C@H](CC(C)C)NC(=O)[C@H](CC(N)=O)NC(=O)[C@H](Cc1c[nH]c2ccccc12)NC(=O)CNC(=O)[C@@H]1CCCN1C(=O)[C@H](Cc1ccccc1)NC(=O)[C@H](CO)NC(=O)[C@H](CCC(=O)O)NC(=O)[C@H](CCSC)NC(C)=O)C(C)C)C(=O)NCC(=O)N[C@@H](CC(C)C)C(=O)N[C@@H](CC(C)C)C(=O)N[C@@H](CCCNC(=N)N)C(N)=O
IC50 [3]: 25000 nM | IC50 [4]: 8300 nM | IC50 [5]: 840 nM

B3: Compound 28 (peptide)
peptide: SGDLMPWNLVRIGLLR
notes: Free N- and C-termini as printed
Kd [6]: 46100 nM | Kd [7]: 856 nM

B4: Compound 50: Ac-LMPWNLVRIGLLR-NH2 (peptide)
peptide: Ac-LMPWNLVRIGLLR-NH2
Kd [1]: 470 nM | IC50 [2]: 3600 nM

B5: Compound 26 (peptide)
peptide: H-SGCFIPWNLQRIGLLC-NH2
modifications: disulfide 3-16 (inferred)
notes: Two Cys, disulfide-cyclized
Kd [6]: 29000 nM | Kd [7]: 802 nM

B6: Compound 192: Ac-WNLV(homoR)IGLLR-NH2 (peptide)
peptide: Ac-WNLV[hArg]IGLLR-NH2
Kd [1]: 1000 nM | IC50 [3]: > 50000 nM | IC50 [4]: > 50000 nM | IC50 [2]: 5600 nM | IC50 [5]: 5550 nM

B7: Compound 53: Ac-WNLVRIGLLR-NH2 (peptide)
peptide: Ac-WNLVRIGLLR-NH2
Kd [1]: 14000 nM | IC50 [2]: 52400 nM

B8: K9gvpep4 (peptide)
peptide: SGCRLPWNLQRIGLPC
modifications: not fully specified (bridges); cysteine pairing not given here
notes: synthetic; Compound 19 = Pep2-8_K9gvpep4, the two N-terminal residues of K9gvpep4 being the SG of the GSG linker
IC50 [8]: 544 nM

B9: K9gvpep7 (peptide)
peptide: SGDLMPWNLVRIGLLR
notes: synthetic; Compound 20 = Pep2-8_K9gvpep7
IC50 [8]: 914 nM

B10: Compound 228: Ac-SFAFPGWNLV(homoR)IGLLR-NH2 (peptide)
peptide: Ac-SFAFPGWNLV[hArg]IGLLR-NH2
SMILES: CC[C@H](C)[C@H](NC(=O)[C@H](CCCCNC(=N)N)NC(=O)[C@@H](NC(=O)[C@H](CC(C)C)NC(=O)[C@H](CC(N)=O)NC(=O)[C@H](Cc1c[nH]c2ccccc12)NC(=O)CNC(=O)[C@@H]1CCCN1C(=O)[C@H](Cc1ccccc1)NC(=O)[C@H](C)NC(=O)[C@H](Cc1ccccc1)NC(=O)[C@H](CO)NC(C)=O)C(C)C)C(=O)NCC(=O)N[C@@H](CC(C)C)C(=O)N[C@@H](CC(C)C)C(=O)N[C@@H](CCCNC(=N)N)C(N)=O
IC50 [3]: 30400 nM | IC50 [4]: 13200 nM | IC50 [5]: 1370 nM

B11: SEQ ID NO 308 (peptide)
peptide: TAFTSWEEYLDWVGSGVLWNHSRI
ELISA [9]: 2.74 | s/n ratio [9]: 24.9 | ELISA [10]: 2.82 | s/n ratio [10]: 26.4 | ELISA [11]: 3 | s/n ratio [11]: 29.7 | ELISA [12]: 2.91 | s/n ratio [12]: 31.3

B12: Compound 20 (peptide)
peptide: Ac-TVFTSWEEYLDWVGSGDLMPWNLVRIGLLR-NH2
notes: also called Pep2-8p7; Pep2-8_K9gvpep7
IC50 [13]: 37 nM | IC50 [14]: 1 nM | Kd [6]: 5.56 nM | Kd [7]: 0.366 nM

B13: Compound 19 (peptide)
peptide: Ac-TVFTSWEEYLDWVGSGCRLPWNLQRIGLPC-NH2
modifications: disulfide 17-30 (inferred)
notes: Two Cys, disulfide-cyclized; also called Pep2-8p4; Pep2-8_K9gvpep4
IC50 [15]: 9 nM | IC50 [16]: 2 nM | Kd [6]: 2.07 nM | Kd [7]: 0.0989 nM

B14: Compound 51: Ac-MPWNLVRIGLLR-NH2 (peptide)
peptide: Ac-MPWNLVRIGLLR-NH2
Kd [1]: 1400 nM | IC50 [2]: 6600 nM

B15: Compound 20 (peptide)
peptide: Ac-TVFTSWEEYLDWVGSGDLMPWNLVRIGLLR-NH2
notes: as for B12
IC50 [17]: 1.75 nM | IC50 [18]: 5.99 nM

B16: Compound 231: Ac-ESYPGWNLV(homoR)IGLLR-NH2 (peptide)
peptide: Ac-ESYPGWNLV[hArg]IGLLR-NH2
SMILES: CC[C@H](C)[C@H](NC(=O)[C@H](CCCCNC(=N)N)NC(=O)[C@@H](NC(=O)[C@H](CC(C)C)NC(=O)[C@H](CC(N)=O)NC(=O)[C@H](Cc1c[nH]c2ccccc12)NC(=O)CNC(=O)[C@@H]1CCCN1C(=O)[C@H](Cc1ccc(O)cc1)NC(=O)[C@H](CO)NC(=O)[C@H](CCC(=O)O)NC(C)=O)C(C)C)C(=O)NCC(=O)N[C@@H](CC(C)C)C(=O)N[C@@H](CC(C)C)C(=O)N[C@@H](CCCNC(=N)N)C(N)=O
IC50 [3]: > 50000 nM | IC50 [4]: 15800 nM | IC50 [5]: 1490 nM

B17: Compound 230: Ac-DSYPGWNLV(homoR)IGLLR-NH2 (peptide)
peptide: Ac-DSYPGWNLV[hArg]IGLLR-NH2
SMILES: CC[C@H](C)[C@H](NC(=O)[C@H](CCCCNC(=N)N)NC(=O)[C@@H](NC(=O)[C@H](CC(C)C)NC(=O)[C@H](CC(N)=O)NC(=O)[C@H](Cc1c[nH]c2ccccc12)NC(=O)CNC(=O)[C@@H]1CCCN1C(=O)[C@H](Cc1ccc(O)cc1)NC(=O)[C@H](CO)NC(=O)[C@H](CC(=O)O)NC(C)=O)C(C)C)C(=O)NCC(=O)N[C@@H](CC(C)C)C(=O)N[C@@H](CC(C)C)C(=O)N[C@@H](CCCNC(=N)N)C(N)=O
IC50 [3]: > 50000 nM | IC50 [4]: 24200 nM | IC50 [5]: 2420 nM

B18: Compound 227: Ac-ESFPGWNLV(homoR)IGLLR-NH2 (peptide)
peptide: Ac-ESFPGWNLV[hArg]IGLLR-NH2
SMILES: CC[C@H](C)[C@H](NC(=O)[C@H](CCCCNC(=N)N)NC(=O)[C@@H](NC(=O)[C@H](CC(C)C)NC(=O)[C@H](CC(N)=O)NC(=O)[C@H](Cc1c[nH]c2ccccc12)NC(=O)CNC(=O)[C@@H]1CCCN1C(=O)[C@H](Cc1ccccc1)NC(=O)[C@H](CO)NC(=O)[C@H](CCC(=O)O)NC(C)=O)C(C)C)C(=O)NCC(=O)N[C@@H](CC(C)C)C(=O)N[C@@H](CC(C)C)C(=O)N[C@@H](CCCNC(=N)N)C(N)=O
IC50 [3]: > 50000 nM | IC50 [4]: 23200 nM | IC50 [5]: 2510 nM
